Assay results published in US20240084003A1 (SIMCERE ZAIMING PHARMACEUTICAL, published 2024).

T1: human CD22-ECD-His protein (human, UniProt P20273 20-687)
T1 construct: Made in house in HEK293E; also called hCD22-ECD-His; recombinant human CD22-ECD His protein; not shown: His tag
T1 sequence: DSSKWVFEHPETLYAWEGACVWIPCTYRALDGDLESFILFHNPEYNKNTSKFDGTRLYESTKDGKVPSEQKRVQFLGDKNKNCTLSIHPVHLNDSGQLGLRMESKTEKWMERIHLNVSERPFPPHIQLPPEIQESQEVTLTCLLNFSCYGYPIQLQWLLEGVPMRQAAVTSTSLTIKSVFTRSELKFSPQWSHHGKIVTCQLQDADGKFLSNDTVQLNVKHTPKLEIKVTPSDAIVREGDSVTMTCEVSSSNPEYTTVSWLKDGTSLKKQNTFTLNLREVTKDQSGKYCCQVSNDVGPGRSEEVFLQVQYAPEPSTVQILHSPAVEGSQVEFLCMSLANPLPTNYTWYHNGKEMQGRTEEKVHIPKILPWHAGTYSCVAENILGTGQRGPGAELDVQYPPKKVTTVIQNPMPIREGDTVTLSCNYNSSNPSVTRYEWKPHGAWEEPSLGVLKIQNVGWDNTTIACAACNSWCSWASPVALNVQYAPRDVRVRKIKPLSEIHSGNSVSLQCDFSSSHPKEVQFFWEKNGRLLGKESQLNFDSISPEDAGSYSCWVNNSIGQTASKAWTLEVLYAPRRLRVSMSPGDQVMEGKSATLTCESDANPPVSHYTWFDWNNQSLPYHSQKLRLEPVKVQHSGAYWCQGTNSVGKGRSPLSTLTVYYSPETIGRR

T2: murine CD22 protein (ACROBiosystems, SI2-M52Ha) (murine, UniProt P35329 22-708)
T2 construct: extracellular domain; also called murine CD22-ECD; murine CD22-ECD-His
T2 sequence (looked up): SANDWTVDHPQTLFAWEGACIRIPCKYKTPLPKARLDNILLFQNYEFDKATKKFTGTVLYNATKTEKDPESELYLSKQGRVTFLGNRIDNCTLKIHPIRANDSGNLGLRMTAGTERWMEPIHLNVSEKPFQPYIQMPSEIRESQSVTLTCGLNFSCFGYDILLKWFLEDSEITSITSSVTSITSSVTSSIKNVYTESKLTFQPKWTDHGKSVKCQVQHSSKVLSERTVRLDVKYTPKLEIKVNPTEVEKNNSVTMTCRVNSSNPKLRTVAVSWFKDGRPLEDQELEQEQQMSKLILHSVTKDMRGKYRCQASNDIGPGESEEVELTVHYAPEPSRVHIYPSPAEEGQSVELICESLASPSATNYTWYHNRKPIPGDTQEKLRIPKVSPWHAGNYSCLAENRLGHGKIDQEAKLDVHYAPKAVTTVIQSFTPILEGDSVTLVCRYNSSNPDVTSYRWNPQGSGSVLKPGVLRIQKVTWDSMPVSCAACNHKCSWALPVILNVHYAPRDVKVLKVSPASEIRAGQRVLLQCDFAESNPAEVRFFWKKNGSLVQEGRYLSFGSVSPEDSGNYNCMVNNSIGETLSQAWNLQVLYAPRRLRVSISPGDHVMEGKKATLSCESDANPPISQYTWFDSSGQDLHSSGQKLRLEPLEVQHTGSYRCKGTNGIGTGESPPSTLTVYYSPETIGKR

T3: monkey CD22 protein (ACROBiosystems, SI2-R52Ha) (monkey (rhesus monkey in paragraph 148), UniProt H9G1X2 18-686)
T3 construct: extracellular domain; also called monkey CD22-ECD; monkey CD22-ECD-His
T3 sequence: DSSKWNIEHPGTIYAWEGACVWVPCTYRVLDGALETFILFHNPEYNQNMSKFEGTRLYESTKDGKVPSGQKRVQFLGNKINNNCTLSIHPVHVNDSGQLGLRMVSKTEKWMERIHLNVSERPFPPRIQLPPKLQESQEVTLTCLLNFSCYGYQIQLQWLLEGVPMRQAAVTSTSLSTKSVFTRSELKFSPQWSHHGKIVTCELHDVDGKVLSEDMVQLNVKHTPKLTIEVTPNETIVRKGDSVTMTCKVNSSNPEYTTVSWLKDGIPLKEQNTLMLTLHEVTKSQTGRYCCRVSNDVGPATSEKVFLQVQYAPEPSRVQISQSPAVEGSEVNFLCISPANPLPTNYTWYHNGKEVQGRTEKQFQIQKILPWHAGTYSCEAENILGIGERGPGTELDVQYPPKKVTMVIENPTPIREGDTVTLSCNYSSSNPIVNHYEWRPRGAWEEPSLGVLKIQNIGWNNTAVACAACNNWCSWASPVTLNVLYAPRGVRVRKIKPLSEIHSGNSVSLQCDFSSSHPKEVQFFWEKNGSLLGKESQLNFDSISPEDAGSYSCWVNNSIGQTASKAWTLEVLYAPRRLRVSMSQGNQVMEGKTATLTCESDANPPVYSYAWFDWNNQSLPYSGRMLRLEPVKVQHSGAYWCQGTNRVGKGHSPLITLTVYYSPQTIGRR

T4: human CD22 domain5-7-His (human, UniProt P20273 414-687)
T4 construct: also called hCD22 domain5-7-His; not shown: His tag
T4 sequence: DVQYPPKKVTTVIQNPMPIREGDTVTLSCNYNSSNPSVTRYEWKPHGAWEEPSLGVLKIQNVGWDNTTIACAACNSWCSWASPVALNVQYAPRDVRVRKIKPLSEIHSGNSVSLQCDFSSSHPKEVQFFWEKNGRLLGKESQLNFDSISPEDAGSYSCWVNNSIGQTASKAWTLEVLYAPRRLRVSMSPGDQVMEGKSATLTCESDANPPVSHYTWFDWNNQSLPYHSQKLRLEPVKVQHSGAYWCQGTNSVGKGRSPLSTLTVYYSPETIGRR

T5: human CD22 domain1-4-His (human, UniProt P20273 20-425)
T5 construct: also called hCD22 domain1-4-His; not shown: His tag
T5 sequence: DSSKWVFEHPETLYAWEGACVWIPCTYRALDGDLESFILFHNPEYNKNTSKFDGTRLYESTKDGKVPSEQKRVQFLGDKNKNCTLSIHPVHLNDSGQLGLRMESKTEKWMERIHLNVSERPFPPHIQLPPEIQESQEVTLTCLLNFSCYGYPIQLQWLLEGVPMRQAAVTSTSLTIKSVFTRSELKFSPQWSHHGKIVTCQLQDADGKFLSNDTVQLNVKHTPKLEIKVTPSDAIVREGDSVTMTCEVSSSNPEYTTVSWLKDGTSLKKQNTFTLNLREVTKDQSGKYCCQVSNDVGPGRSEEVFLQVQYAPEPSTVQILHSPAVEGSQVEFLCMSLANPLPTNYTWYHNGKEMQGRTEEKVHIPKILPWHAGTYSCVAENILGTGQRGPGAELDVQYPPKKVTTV

B1: F1.250.16 (antibody, human IgG1, kappa, V domains shown)
VH: QVQLQQSGAEQVKPGASVKMSCKASGYTFTTYPIEWMKQNHGESLDWIGNIHPYNDDTEYNEKFKGKATLTVEKSSNTVFLELSRLTSDDSAVYYCVRGDYYNSRYWYFDVWGTGTTVTVSS
VL: DIVMTQSQKFMSTTVGDRVSITCKAGQNVRTAVAWYQQKPGQSPKLLIYSASTRYIGVPERFTGSGSGTDFTLTITNMQSEDLADYFCQQYSSFPLTFGTGTKLELKR
notes: Human-murine chimeric IgG1, kappa
B2: F1.172.13 (antibody, human IgG1, kappa, V domains shown)
VH: QVTLKESGPGILQSSQTLSLTCSFSGFSLSTSGMGVSWIRQPSGKGLEWLAHIYWDDDKRYNPSLKSRLTISKDTSRNQVFLKITSVDTADTATYYCARAPPPNWDEYYFDYWGQGTTLTVSS
VL: DIQMTQSPASLSASVGETVTITCRASGNIHNSLAWYQQKQGKSPQLLVHNAKTLADGVPSRFSGSGSGTQYSLKINSLQPEDFGSYYCQHFWSTPPFGGGTKLEIKR
notes: as for B1
B3: F2.173.9 (antibody, human IgG1, lambda, V domains shown)
VH: EVQLVESGGDLVKPGESLKLSCEASGFTFSNYAMSWVRQTPDRRLEWVATISSIGSFTYYSDSVKGRFTISRDNVKSTLHLQMNNLKSGDTAIYFCARLGVYFDSWGQGTTLTVSS
VL: QLVLTQSSSASFSLGASAKLTCTLSSQHSTYTIEWYQQQPHKPPKFVMEIKKDGSHYTGDGIPDRFSGSSSGADRYLSISNIQPEDETIYICGVSDMIKDQFVYVFGGGTKVTVLG
notes: Human-murine chimeric IgG1, lambda
B4: F2.151.13 (antibody, human IgG1, lambda, V domains shown)
VH: QVHLQQPGTELMKPGASVKLSCKATGYTFRDYWLEWVKQRPGHGLEWIGEILPGSGNAYYNEKFKGKATFTADTSSNTAYMQLSSLTTEDSAIYYCARVYSNWYFDAWGKGTTVTVSS
VL: QAVVTQESALTTSPGETVTLTCRSSTGAVTTSNYANWVQEKPDHLFTGLIGGTNNQAPGVPARFSGSLIGDKAALTISGAQTEDEAIYFCALWFSNHWVFGGGTKLTVLG
notes: as for B3

How the values were obtained:
[1] = molecular target: T1, human CD22-ECD-His protein; assay: ELISA, Ab 0.01 nM
Method: (§1) In order to detect the binding activity of CD22 human-murine chimeric antibodies to CD22 protein, the purified human CD22-ECD-His protein obtained in Example 2 was diluted with PBS to a final concentration of 2 μg/mL, and then added to 96-well ELISA plate at 100 μl/well. The plate was sealed with plastic film and incubated overnight at 4° C., the plate was washed 2 times with PBS the next day, and then a blocking solution [PBS+2% (w/w) BSA] was added for blocking at room temperature for 2 hours. […] After incubation at 37° C. for 2 hours, the plate was washed 3 times with PBS. HRP (horseradish peroxidase)-labeled secondary antibody (purchased from Sigma, catalog number: A0170) was added, and incubated at 37° C. for 2 hours, and the plate was washed 5 times with PBS. TMB substrate was added at 50 μl/well, and incubated at room temperature for 30 minutes, then a stop solution (1.0 N HCl) was added at 50 μl/well.

[2] = molecular target: T1, human CD22-ECD-His protein; assay: ELISA, Ab 0.10 nM
Method: as §1

[3] = molecular target: T1, human CD22-ECD-His protein; assay: ELISA, Ab 0.001 nM
Method: as §1

[4] = molecular target: T1, human CD22-ECD-His protein; assay: ELISA, Ab 10.00 nM
Method: as §1

[5] = molecular target: T1, human CD22-ECD-His protein; assay: ELISA, Ab 0.0001 nM
Method: as §1

[6] = molecular target: T1, human CD22-ECD-His protein; assay: ELISA, Ab 100.00 nM
Method: as §1

[7] = molecular target: T1, human CD22-ECD-His protein; assay: ELISA, Ab 0.00001 nM
Method: as §1

[8] = molecular target: T1, human CD22-ECD-His protein; assay: ELISA, human CD22-ECD-His coated
Method: as §1

[9] = molecular target: T2, murine CD22 protein (ACROBiosystems, …); assay: ELISA, murine CD22-ECD-His coated
Method: as §1
(§2) In order to detect the species cross-binding activity of the chimeric antibodies, an ELISA plate was coated with commercial murine CD22 protein (ACROBiosystems, catalog number: SI2-M52Ha) and monkey CD22 protein (ACROBiosystems, catalog number: SI2-R52Ha), respectively, and the ELISA detection was performed according to the method in Example 5.1.

[10] = molecular target: T3, monkey CD22 protein (ACROBiosystems, …); assay: ELISA, monkey CD22-ECD-His coated
Method: as §1, §2

[11] = molecular target: T4, human CD22 domain5-7-His; assay: ELISA, human CD22 domain5-7-His coated
[12] = molecular target: T5, human CD22 domain1-4-His; assay: ELISA, human CD22 domain1-4-His coated

| Binder | OD450 [1] | OD450 [2] | OD450 [3] | OD450 [4] | OD450 [5] | OD450 [6] | OD450 [7] | EC50 (read off the curve) [8] | binding result [9] | EC50 (read off the curve) [10] | binding result [11] | binding result [12] | EC50 (read off the curve) [11] |
| --- | --- | --- | --- | --- | --- | --- | --- | --- | --- | --- | --- | --- | --- |
| B1 | 2.24 OD450 | 2.58 OD450 | 0.86 OD450 | 2.56 OD450 | 0.21 OD450 | 3.07 OD450 | 0.12 OD450 | ~20 pM | no binding (tested: 100 nM) | ~20 pM | no binding (tested: 100 nM) |  |  |
| B2 | 2.11 OD450 | 2.53 OD450 | 0.74 OD450 | 2.51 OD450 | 0.17 OD450 | 2.87 OD450 | 0.1 OD450 | ~30 pM | no binding (tested: 100 nM) | ~30 pM | no binding (tested: 100 nM) |  |  |
| B3 | 1.52 OD450 | 1.93 OD450 | 0.65 OD450 | 1.97 OD450 | 0.32 OD450 | 2.32 OD450 | 0.18 OD450 | ~30 pM | no binding (tested: 100 nM) | 100 to 1000 pM | no binding (tested: 100 nM) |  |  |
| B4 | 2.1 OD450 | 2.55 OD450 | 0.64 OD450 | 2.6 OD450 | 0.2 OD450 | 3.28 OD450 | 0.1 OD450 | ~40 pM | no binding (tested: 100 nM) |  |  | no binding (tested: 100 nM) | ~50 pM |
